Measured values: paper doi:10.1101/2021.04.07.438830 (bioRxiv, 2021)

Biological target: T1, GST-KPC2 (UniProt Q9BSL1 1-405)
T1 sequence: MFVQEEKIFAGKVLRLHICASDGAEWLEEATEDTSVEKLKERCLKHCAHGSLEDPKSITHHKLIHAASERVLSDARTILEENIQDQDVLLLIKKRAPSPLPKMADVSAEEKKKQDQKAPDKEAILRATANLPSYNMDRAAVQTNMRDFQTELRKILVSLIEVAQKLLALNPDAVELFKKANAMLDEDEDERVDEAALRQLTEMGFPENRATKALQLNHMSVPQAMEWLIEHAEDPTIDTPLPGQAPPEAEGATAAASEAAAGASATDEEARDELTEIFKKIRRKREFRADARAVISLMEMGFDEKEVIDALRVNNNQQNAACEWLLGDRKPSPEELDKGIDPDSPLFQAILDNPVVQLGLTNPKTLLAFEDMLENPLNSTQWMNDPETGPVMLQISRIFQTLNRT
Experiment: pull-down

binding result: binds
B1: GST-p65 (1-307) (domain or fragment)
chain: MDELFPLIFPAEPAQASGPYVEIIEQPKQRGMRFRYKCEGRSAGSIPGERSTDTTKTHPTIKINGYTGPGTVRISLVTKDPPHRPHPHELVGKDCRDGFYEAELCPDRCIHSFQNLGIQCVKKRDLEQAISQRIQTNNNPFQVPIEEQRGDYDLNAVRLCFQVTVRDPSGRPLRLPPVLSHPIFDNRAPNTAELKICRVNRNSGSCLGGDEIFLLCDKVQKEDIEVYFTGPGWEARGSFSQADVHRQVAIVFRTPPYADPSLQAPVRVSMQLRRPSDRELSEPMEFQYLPDTDDRHRIEEKRKRTYE
